Data on 1 molecule can be found in CN112159477A (UNIV SHANGHAI MEDICAL & HEALTH SCIENCES, dated 2021).

Test [1] concerns the target T1, rhMICA-His蛋白 (human, UniProt Q29983 24-308).
T1 construct: Control protein; also called MICA蛋白; not shown: His tag
T1 sequence (looked up): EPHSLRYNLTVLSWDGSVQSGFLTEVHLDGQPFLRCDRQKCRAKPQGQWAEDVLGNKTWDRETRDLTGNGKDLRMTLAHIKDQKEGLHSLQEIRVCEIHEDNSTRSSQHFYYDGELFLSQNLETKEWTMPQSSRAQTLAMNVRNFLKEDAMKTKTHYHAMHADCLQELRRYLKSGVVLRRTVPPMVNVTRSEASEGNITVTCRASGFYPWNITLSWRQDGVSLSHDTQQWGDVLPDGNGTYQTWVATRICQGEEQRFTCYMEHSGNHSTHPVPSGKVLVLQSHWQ
The test can be described thus: BLI (Fortebio Octet Red96), rhNKG2D-Fc captured on AHC sensor, rhMICA-His as analyte. In general terms: BLI is a label-free optical method that tracks binding on a fibre tip over time.

Test [2] concerns the target T1, rhMICA-His蛋白. The test is described as follows: BLI (Fortebio Octet Red96), rhNKG2D-Fc captured on AHC sensor, rhMICA-His 1.23-11.1 nM as analyte.

B1: rhNKG2D-Fc蛋白 (Fc fusion, human, UniProt P26718 78-216, looked up)
chain: FLNSLFNQEVQIPLTESYCGPCPKNWICYKNNCYQFFDESKNWYESQASCMSQNASLLKVYSKEDQDLLKLVKSYHWMGLVHIPTNGSWQWEDGSILSPNLLTIIEMQKGDCALYASSFKGYIENCSTPNTYICMQRTV
notes: the order of the parts follows the printed name only; not shown: Fc part (captured by an anti-human IgG Fc sensor)
For B1, in the test with rhMICA-His蛋白 [1], the koff came out at 0.0015 s⁻¹ and the kon turned out to be 1.19e+06 M⁻¹ s⁻¹. Also, in the test with rhMICA-His蛋白 [2], the Kd was determined as 1.26 nM.

A word on the koff: it is the rate constant with which the complex falls apart. Read a high koff as a short-lived complex. For orientation: kon means the rate constant with which the complex forms. A low value points to slower complex formation. As usually defined, the Kd is a measure of binding affinity in units of concentration. The low end stands for higher affinity, the high end for lower affinity.
